Patent US20150328292A1, “CASPASE POLYPEPTIDES HAVING MODIFIED ACTIVITY AND USES THEREOF” (BELLICUM PHARMACEUTICALS, INC., priority 2014, published 2015)
“Also recorded” adds a separate entry of the source.

Experiments:
[1] = system: HEK293T/16 cells; test: SEAP reporter-based surrogate killing assay (basal activity and AP1903 IC50); type: cell-based, human; conditions: for basal activity / basal signaling (in words): AP1903-independent SEAP activity, vs wild type; for relative SEAP activity Units (basal activity): no AP1903, higher SEAP = lower basal activity
Method: FIG. 45 provides a schematic of an analysis of SEAP assays. […] of the mixture was seeded onto each well of a 96-well plate. […] For the assay, 4-methylumbelliferyl phosphate substrate was hydrolyzed by SEAP to 4-methylumbelliferon, a metabolite that can be excited with 364 nm and detected with an emission filter of 448 nm. Since SEAP is used as a marker for cell viability, reduced SEAP reading corresponds with increased icaspase-9 activities.
Early passage HEK293T/16 cells (ATCC, Manassas, Va.) were maintained in IMDM, GlutaMAX™ (Life Technologies, Carlsbad, Calif.) supplemented with 10% FBS, 100 U/mL penicillin, and 100 […] until transfection in a humidified, 37° C., 5% CO2/95% air atmosphere. Cells in logarithmic-phase growth were transiently transfected with 800 ng to 2 μg of expression plasmid encoding iCasp9 mutants and 500 ng of an expression plasmid encoding SRα promoter driven SEAP per million cells in 15-mL conical tubes. […] GeneJammer® Transfection Reagent at a ratio of 3 μl per ug of plasmid DNA was used to transiently transfect HEK293T/16 cells in the absence of antibiotics. 100 μl or 2 mL of the transfection mixture was added to each well in 96-well or 6-well plate, respectively.
Briefly, after 65° C. heat denaturation for 45 minutes to reduce background caused by endogenous (and serum-derived) alkaline phosphatases that are sensitive to heat, 5 μl of supernatants was added to 95 μl of PBS and added to 100 μl of substrate buffer, containing 1 μl of 100 mM 4-methylumbelliferyl phosphate (4-MUP; Sigma, St. Louis, Mo.) re-suspended in 2 M diethanolamine. Hydrolysis of 4-MUP by SEAP produces a fluorescent […] with excitation/emission (355/460 nm), which can be easily measured. Assays were performed in black opaque 96-well plates to minimize fluorescence leakage between wells (FIG. 45).

[2] = system: Activated T cells; test: Control of T cell proliferation in vitro over 10 days with AP1903; type: cell-based, human; conditions: AP1903 on days 0 and 4, 10 days
[3] = system: PG13 packaging cells; type: cell-based

Molecule	basal activity / basal signaling (in words) [1]	also measured
D330N: chimeric modified caspase-9 polypeptide variant (protein) VDGFGDVGALESLRGNADLAYILSMEPCGHCLIINNVNFCRESGLRTRTGSNIDCEKLRRRFSSLHFMVEVKGDLTAKKMVLALLELARQDHGALDCCVVVILSHGCQASHLQFPGAVYGTDGCPVSVEKIVNIFNGTSCPSLGGKPKLFFIQACGGEQKDHGFEVASTSPEDESPGSNPEPDATPFQEGLRTFDQLNAISSLPTPSDIFVSYSTFPGFVSWRDPKSGSWYVETLDDIFEQWAHSEDLQSLLLRVANAVSVKGIYKQMPGCFNFLRKKLFFKTSASRA	less basal activity than wild type caspase-9	
D330V: chimeric modified caspase-9 polypeptide variant (protein) VDGFGDVGALESLRGNADLAYILSMEPCGHCLIINNVNFCRESGLRTRTGSNIDCEKLRRRFSSLHFMVEVKGDLTAKKMVLALLELARQDHGALDCCVVVILSHGCQASHLQFPGAVYGTDGCPVSVEKIVNIFNGTSCPSLGGKPKLFFIQACGGEQKDHGFEVASTSPEDESPGSNPEPDATPFQEGLRTFDQLVAISSLPTPSDIFVSYSTFPGFVSWRDPKSGSWYVETLDDIFEQWAHSEDLQSLLLRVANAVSVKGIYKQMPGCFNFLRKKLFFKTSASRA	less basal activity than wild type caspase-9	
D330G: chimeric modified caspase-9 polypeptide variant (protein) VDGFGDVGALESLRGNADLAYILSMEPCGHCLIINNVNFCRESGLRTRTGSNIDCEKLRRRFSSLHFMVEVKGDLTAKKMVLALLELARQDHGALDCCVVVILSHGCQASHLQFPGAVYGTDGCPVSVEKIVNIFNGTSCPSLGGKPKLFFIQACGGEQKDHGFEVASTSPEDESPGSNPEPDATPFQEGLRTFDQLGAISSLPTPSDIFVSYSTFPGFVSWRDPKSGSWYVETLDDIFEQWAHSEDLQSLLLRVANAVSVKGIYKQMPGCFNFLRKKLFFKTSASRA	less basal activity than wild type caspase-9	
S196D: chimeric modified caspase-9 polypeptide variant (protein) VDGFGDVGALESLRGNADLAYILSMEPCGHCLIINNVNFCRESGLRTRTGSNIDCEKLRRRFSDLHFMVEVKGDLTAKKMVLALLELARQDHGALDCCVVVILSHGCQASHLQFPGAVYGTDGCPVSVEKIVNIFNGTSCPSLGGKPKLFFIQACGGEQKDHGFEVASTSPEDESPGSNPEPDATPFQEGLRTFDQLDAISSLPTPSDIFVSYSTFPGFVSWRDPKSGSWYVETLDDIFEQWAHSEDLQSLLLRVANAVSVKGIYKQMPGCFNFLRKKLFFKTSASRA	lower basal activity	
S183A: chimeric modified caspase-9 polypeptide variant (protein) VDGFGDVGALESLRGNADLAYILSMEPCGHCLIINNVNFCRESGLRTRTGANIDCEKLRRRFSSLHFMVEVKGDLTAKKMVLALLELARQDHGALDCCVVVILSHGCQASHLQFPGAVYGTDGCPVSVEKIVNIFNGTSCPSLGGKPKLFFIQACGGEQKDHGFEVASTSPEDESPGSNPEPDATPFQEGLRTFDQLDAISSLPTPSDIFVSYSTFPGFVSWRDPKSGSWYVETLDDIFEQWAHSEDLQSLLLRVANAVSVKGIYKQMPGCFNFLRKKLFFKTSASRA	lower basal activity	
D330S: chimeric modified caspase-9 polypeptide variant (protein) VDGFGDVGALESLRGNADLAYILSMEPCGHCLIINNVNFCRESGLRTRTGSNIDCEKLRRRFSSLHFMVEVKGDLTAKKMVLALLELARQDHGALDCCVVVILSHGCQASHLQFPGAVYGTDGCPVSVEKIVNIFNGTSCPSLGGKPKLFFIQACGGEQKDHGFEVASTSPEDESPGSNPEPDATPFQEGLRTFDQLSAISSLPTPSDIFVSYSTFPGFVSWRDPKSGSWYVETLDDIFEQWAHSEDLQSLLLRVANAVSVKGIYKQMPGCFNFLRKKLFFKTSASRA	less basal activity than wild type caspase-9; also recorded: statistically lower basal signaling	
F406T: chimeric modified caspase-9 polypeptide variant (protein) VDGFGDVGALESLRGNADLAYILSMEPCGHCLIINNVNFCRESGLRTRTGSNIDCEKLRRRFSSLHFMVEVKGDLTAKKMVLALLELARQDHGALDCCVVVILSHGCQASHLQFPGAVYGTDGCPVSVEKIVNIFNGTSCPSLGGKPKLFFIQACGGEQKDHGFEVASTSPEDESPGSNPEPDATPFQEGLRTFDQLDAISSLPTPSDIFVSYSTFPGFVSWRDPKSGSWYVETLDDIFEQWAHSEDLQSLLLRVANAVSVKGIYKQMPGCFNTLRKKLFFKTSASRA	lower basal signaling than WT	
F404W: chimeric modified caspase-9 polypeptide variant (protein) VDGFGDVGALESLRGNADLAYILSMEPCGHCLIINNVNFCRESGLRTRTGSNIDCEKLRRRFSSLHFMVEVKGDLTAKKMVLALLELARQDHGALDCCVVVILSHGCQASHLQFPGAVYGTDGCPVSVEKIVNIFNGTSCPSLGGKPKLFFIQACGGEQKDHGFEVASTSPEDESPGSNPEPDATPFQEGLRTFDQLDAISSLPTPSDIFVSYSTFPGFVSWRDPKSGSWYVETLDDIFEQWAHSEDLQSLLLRVANAVSVKGIYKQMPGCWNFLRKKLFFKTSASRA	lower basal signaling than WT	
F404Y: chimeric modified caspase-9 polypeptide variant (protein) VDGFGDVGALESLRGNADLAYILSMEPCGHCLIINNVNFCRESGLRTRTGSNIDCEKLRRRFSSLHFMVEVKGDLTAKKMVLALLELARQDHGALDCCVVVILSHGCQASHLQFPGAVYGTDGCPVSVEKIVNIFNGTSCPSLGGKPKLFFIQACGGEQKDHGFEVASTSPEDESPGSNPEPDATPFQEGLRTFDQLDAISSLPTPSDIFVSYSTFPGFVSWRDPKSGSWYVETLDDIFEQWAHSEDLQSLLLRVANAVSVKGIYKQMPGCYNFLRKKLFFKTSASRA	lower basal signaling than WT	T cell proliferation and survival [2]: indistinguishable from wild type caspase-9 polypeptide or D330A
D330A: ΔCasp9 (res. 135-416) D330A, SEQ ID NO: 24 (protein) GFGDVGALESLRGNADLAYILSMEPCGHCLIINNVNFCRESGLRTRTGSNIDCEKLRRRFSSLHFMVEVKGDLTAKKMVLALLELARQDHGALDCCVVVILSHGCQASHLQFPGAVYGTDGCPVSVEKIVNIFNGTSCPSLGGKPKLFFIQACGGEQKDHGFEVASTSPEDESPGSNPEPDATPFQEGLRTFDQLAAISSLPTPSDIFVSYSTFPGFVSWRDPKSGSWYVETLDDIFEQWAHSEDLQSLLLRVANAVSVKGIYKQMPGCFNFLRKKLFFKTS	low to undetectable basal activity; also recorded: lowered basal activity, but not as low as in N405Q; also recorded: less basal activity than wild type caspase-9; also recorded: lower basal activity; also recorded: lower basal signaling compared to the wild-type caspase-9; also recorded: statistically lower basal signaling	T cell proliferation and survival [2]: halted T cell proliferation; CD19 mean fluorescence intensity (MFI) of transduced PG13 cells [3]: enhanced CD19 mean fluorescence intensity; viral titers [3]: higher viral titers; relative SEAP activity Units (basal activity) ([1]; 1 μg iCasp9 per million cells): 148928; relative SEAP activity Units (basal activity) ([1]; 2 μg iCasp9 per million cells): 136863
F319W: chimeric modified caspase-9 polypeptide variant (protein, UniProt P55211 1-416, looked up, variant F319W, chimeric, fused to FKBP12v36, chimeric modified caspase-9 polypeptide variant) MDEADRRLLRRCRLRLVEELQVDQLWDALLSRELFRPHMIEDIQRAGSGSRRDQARQLIIDLETRGSQALPLFISCLEDTGQDMLASFLRTNRQAAKLSKPTLENLTPVVLRPEIRKPEVLRPETPRPVDIGSGGFGDVGALESLRGNADLAYILSMEPCGHCLIINNVNFCRESGLRTRTGSNIDCEKLRRRFSSLHFMVEVKGDLTAKKMVLALLELAQQDHGALDCCVVVILSHGCQASHLQFPGAVYGTDGCPVSVEKIVNIFNGTSCPSLGGKPKLFFIQACGGEQKDHGFEVASTSPEDESPGSNPEPDATPWQEGLRTFDQLDAISSLPTPSDIFVSYSTFPGFVSWRDPKSGSWYVETLDDIFEQWAHSEDLQSLLLRVANAVSVKGIYKQMPGCFNFLRKKLFFKTS	lower basal activity	
